Reference: patent EP1292709B1
Where no end group is shown, it is not given here.

Biological target: receptors that recognize the sequence GRGDSPG
Experiment: cell-based or functional assay

B1: … (peptide)
peptide: GC(PEG acrylate)GYGRGDSPG
- adhesion and spreading of human foreskin fibroblasts on conjugate addition gels, 6 hours post-seeding: 50%
